For one substance, Km and Vmax results are on record in patent US20130196406A1, “NOVEL PROTEIN-POLYMER NANOCAPSULES” (University of Connecticut, priority 2012, published 2013).

Values joined by “and” are separate entries in the source; they are usually repeats but may differ in a detail not shown here. Equal values may be shown once.

This data set deals with T1, COc1ccccc1O.
T1 construct: peroxidase-like activity with guaiacol/H2O2
Nature of the data set: Peroxidase-like activity, Michaelis-Menten kinetics (guaiacol oxidation by H2O2, 470 nm), unmodified Hb. The following applies: other: Hb, 1 μM Hb, 2.5 mM guaiacol. The format is biochemical, bovine. As to the method:
FIG. 5 provides Lineweaver-Burk plots for the peroxidase-like activity of Hb-PAA conjugates. A) Peroxidase-like activity for the 1 μM of Hb-PAA synthesized at pH 6.0. B) Peroxidase-like activity for 1 μM Hb-PAA synthesized at pH 7.0. All experiments were done in the presence of 1 μM Hb, 2.5 mM guaiacol and 1 mM H2O2.
Polyacrylic acid (PAA) (8000 Da) was purchased from sigma chemical Co (St. Louis, Mo.). The PAA stock solution was made by mixing 1.32 gm of 45% (w/w) PAA in 3 ml of 20 mM Na2HPO4 buffer, pH 7.2, and was further used for synthesis. Met-hemoglobin (Hb, bovine) was purchased from Sigma. Protein solutions were prepared in the respective buffers used for synthesis and the concentrations determined from the Soret absorbance of Hb using extinction co-efficient 303,956 M^−1 cm^−1 at 407 nm.
Hb activity was monitored by the addition of guaiacol (substrate) and hydrogen peroxide (oxidant), and formation of the colored product has been monitored by its absorption at 470 nm as a function of time (FIG. 4). […]
Hb activity was followed by literature method, with minor modifications. Product absorbance at 470 nm was monitored as a function time of after the addition of H2O2 (1 mM) to Hb (5 μM) and o-methoxyphenol (2.5 mM). Initial rates and Michaelis-Menten parameters were calculated from the kinetic data by following standard protocols. […]

Sequence of Met-hemoglobin (Hb, bovine), unmodified (Bos taurus) (chain, as listed by the source): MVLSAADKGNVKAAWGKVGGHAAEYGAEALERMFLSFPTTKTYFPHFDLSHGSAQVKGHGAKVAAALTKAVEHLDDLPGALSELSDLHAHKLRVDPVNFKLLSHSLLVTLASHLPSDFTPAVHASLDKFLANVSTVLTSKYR
Sequence of Met-hemoglobin (Hb, bovine), unmodified (Bos taurus) (chain, as listed by the source): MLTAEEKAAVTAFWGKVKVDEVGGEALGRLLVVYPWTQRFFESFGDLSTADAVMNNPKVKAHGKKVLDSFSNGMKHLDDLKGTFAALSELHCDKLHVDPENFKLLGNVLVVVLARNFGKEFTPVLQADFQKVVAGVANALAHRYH

As for “Met-hemoglobin (Hb, bovine), unmodified (Bos taurus)”, the Km (1 mM H2O2) was 500 µM and 507 µM. The Vmax (1 mM H2O2, 120.0 °C) is 0.0026 mM/s and 0.0021 mM/s.

Usually Km stands for the concentration of substrate that gives half-maximal velocity. By Vmax is commonly meant the top rate of the reaction or transport when substrate is in excess.
